# Entries after “also recorded” stand apart in the source; their conditions may differ. rhodamine = not defined here; BODIPY = not defined here
# How the values were obtained:
# [1] = tested on: untagged GFP/EGFP and mCherry; assay: Fluorescence microscopy, cells expressing untagged fluorescent proteins; format: cell-based, human
# Procedure: (§1) Fluorescence microscopy was used to confirm that the VIP Y/Z tag set enabled selective fluorescent labeling of proteins (FIGS. 3A and 3B). CoilZ was expressed by fusion to a cell-surface localized variant of GFP (CoilZ-GFP; pDisplay vector). […] Labeling was rapid (<30 min), target-specific, and live-cell compatible. Homodimerization between a CoilZ probe peptide and CoilZ-GFP was not observed. Cells expressing untagged GFP were not labeled with the CoilY probe peptide. CoilY was also expressed fused to the cell surface localized GFP and visualized using a CoilZ-AF647 probe peptide (FIG. 3B). No homodimerization of CoilY was observed, and the labeling was specific.
# (§2) It was next confirmed that the VIP Y/Z tag set could be used in two-target imaging in fixed cells (FIGS. 5B and 13). A combination of cell lines singly-transfected with mCherry, GFP, CoilY-mCherry, or CoilZ-GFP was used, as illustrated in FIG. 9. […] Then we labeled two tagged FPs in one sample using a mixed population of cells expressing either CoilY-mCherry or CoilZ-GFP.
# (§3) The disclosed methods were tested in transfected human osteosarcoma cells (U-2 OS). A pDisplay vector was used to target CoilZ-EGFP and untagged EGFP to the cell surface. This construct includes a C-terminal fusion to the transmembrane domain of the platelet derived growth factor receptor. As expected, both CoilZ-EGFP and untagged EGFP localized to the cell surface, and green fluorescence was observed within 24 h of transfection. Then the cells were blocked with 6% BSA and 10% FBS for 30 minutes at 37° C. and then contacted with an AF647-conjugated CoilY probe (CoilY-AF647), 30 min at 4° C. Cells were fixed before imaging by confocal fluorescence microscopy. The probe peptides are membrane impermeant; only cell-surface EGFP was accessible to CoilY-AF647 for labeling. Colocalization of green fluorescent CoilZ-EGFP with CoilY-AF647 was observed.
# The CoilY/CoilZ tag set is bidirectional—either CoilZ or CoilY can serve as the probe peptide. CoilY-EGFP was expressed on the surface of U2OS cells and labeled with CoilZ-AF647. […]
# [2] = tested on: CoilY-EGFP; assay: Fluorescence microscopy labeling of cell-surface CoilY-GFP (CoilY-EGFP); format: cell-based, human
# Procedure: as §1
# The CoilY/CoilZ tag set is bidirectional—either CoilZ or CoilY can serve as the probe peptide. CoilY-EGFP was expressed on the surface of U2OS cells and labeled with CoilZ-AF647. Protein labeling was rapid (<30 min) and specific; non-specific labeling of untagged EGFP was not observed. Homodimerization was not observed for either CoilZ-AF647 with CoilZ-EGFP or CoilY-AF647 with CoilY-EGFP (FIG. 3B).
# (§4) The CoilY/CoilZ tag set is also compatible with live-cell imaging. CoilZ-EGFP was contacted with CoilY-AF647 in live U2OS cells. […] Homodimerization was not observed for CoilY-EGFP incubated with CoilY-AF647. Non-specific labeling of untagged GFP was not observed (FIG. 26). Cells internalize labeled targets over time. CoilZ-GFP and CoilY-AF647 co-localization was observed on the surface and in endocytic vesicles due to rapid internalization, and AF647 signal accumulated inside cells during a 40 min. long incubation at room temperature (FIG. 12).
# [3] = tested on: CoilZ-EGFP; assay: Fluorescence microscopy labeling of cell-surface CoilZ-GFP (CoilZ-EGFP); format: cell-based, human; conditions: fluorescence microscopy
# Procedure: as §1, §2, §3, §4
# The VIPY/Z tag set can be used to label multiple protein targets simultaneously. Cells expressing CoilY-mCherry were combined with those expressing CoilZ-EGFP-pDisplay (FIG. 9). This mixed cell population, as well as unmixed CoilZ-GFP, CoilY-mCherry, and untagged controls, were plated for imaging. […] Fluorescence was detected by confocal fluorescence imaging. […]
# [4] = tested on: untagged EGFP-TM; assay: Flow cytometry of probe labeling, live U-2 OS cells expressing untagged EGFP-TM; format: cell-based, human; conditions: 500 nM probe
# Procedure: The in vitro results were translated to living cells. Flow cytometry was used to evaluate protein labeling in live human osteosarcoma (U-2 OS) cells expressing CoilZ-EGFP-TM, CoilY-EGFP-TM, or untagged EGFP-TM (FIG. 11). Cells were treated with 500 nM AF647-conjugated probe peptide before analysis, and we gated for EGFP-expressing cells. […] Non-specific labeling of untagged EGFP-TM and homodimerization with CoilY-EGFP-TM were minimal for cells exposed to CoilY-AF647. Cells expressing CoilY-EGFP-TM were labeled with CoilZ-AF647, but with only a 4-fold enhancement.
# Protein labeling was assessed as a function of CoilY-AF647 concentration (FIG. 25). Live cells expressing CoilZ-EGFP-TM or untagged EGFP-TM were treated with a range of CoilY-AF647 concentrations (50 nM to 1000 nM for 30 min at room temperature). […] Cells had 21- to 44-fold higher median fluorescence compared to cells expressing untagged protein. Treatment with 300 nM AF647-CoilY gave optimal labeling, with 98% of cells labeled and a 35-fold increase in AF647 fluorescence. Treatment with an excess of probe peptide (i.e., 1000 nM) enhanced the AF647 signal, but at the cost of a small increase in non-specific labeling.
# [5] = molecular target: coiled-coil heterodimer pairs; conditions: heterodimer pair, Table 2; cited from earlier work
# [6] = tested on: untagged mCherry and DHFR; assay: SDS-PAGE/PVDF membrane labeling, untagged proteins; format: binding; conditions: lysates and purified proteins, PVDF membrane
# Procedure: Crude lysates (lys.) and purified proteins (serial dilutions) were resolved by SDS-PAGE. Lysates were prepared from HERK 293FT cells transfected with mCherry, CoilY-mCherry, DHFR, and CoilE-DHFR. The protein gel was transferred to a PVDF membrane and then incubated with CoilZ-Fluorescein and CoilR-rhodamine. After washing, the membrane was imaged to detect VIPER labeling of DHFR (red) and VIP Y/Z labeling of mCherry (green). Untagged proteins were not labeled by either CoilR-rhodamine or CoilZ-fluorescein.
# (§5) A protein gel-based assay was optimized for analyzing VIP tags in vitro. Cell lysates were made from cells transfected with mCherry, CoilY-mCherry, GFP, or CoilZ-GFP, resolved by SDS-PAGE, and transferred to a membrane. GFP and mCherry fluorescence were not preserved in this experiment. The membrane was then contacted with CoilZ-fluorescein and CoilY-rhodamine before imaging. […] The probe peptides were specific for each tagged protein, and this single pair enabled specific and selective protein tagging of two distinct targets. In addition both the VIP E/R and VIP Y/Z tag sets could be used concurrently to label two recombinant proteins (DHFR and mCherry) without crosstalk (FIG. 23).
# [7] = tested on: TfR1-MiniE; assay: miniVIPER versus VIPER labeling of TfR1 in CHO TRVb cells; format: cell-based; conditions: Tf-AF488 and full length CoilR-Cy5
# Procedure: FIG. 24 A and B are fluorescent micrographs comparing VIP E/R labeling with miniVIPER (MiniE and MiniR) labeling of TfR1. […] After labeling cells were imaged over time during a 30 min incubation at 37° C. Cells were imaged as confocal slices at 63× magnification. Transferrin-AF488 was false-colored green, CoilR-Cy5 was false-colored magenta, and nuclei were stained with Hoechst and false-colored blue. Individual channels are shown in FIG. 24B (blue, green, magenta) for the 5 minute timepoint. A Pearson's correlation analysis was used to compare fluorescence co-localization of CoilR-Cy5 with Transferrin-AF488. The p values are reported on the image and indicate that TfR1-miniE had better co-localization between Tf and CoilR labeling.
# VIP E/R was edited by removing a heptad repeat, and changing key residues in the sequence to maximize affinity, improve dimer interface and create a smaller tag pair with more favorable charge balance for imaging in cells. MiniE (SEQ ID NO:10) and MiniR (SEQ ID NO:9) were created. TfR1 was tagged at the C-terminus with MiniE.
# [8] = molecular target: T1, untagged TfR1 (Homo sapiens, UniProt P02786); assay: CoilR probe labeling of CHO TRVb cells expressing untagged TfR1; format: cell-based; conditions: labeled at 4° C.
# T1 construct: expressed in transfected cells; host or cells: CHO TRVb
# [9] = tested on: CoilZ-EGFP; assay: SDS-PAGE/PVDF membrane labeling of transfected HEK293FT lysates, CoilZ-EGFP; format: binding; conditions: cell lysates, SDS-PAGE, PVDF membrane
# Procedure: The CoilY and CoilZ pair could be used to label two protein targets simultaneously. Transfected HEK293FT cell lysates from cells expressing mCherry, CoilY-mCherry, EGFP, or CoilZ-EGFP were resolved by SDS-PAGE and transferred to a PVDF membrane. The membrane was incubated sequentially with CoilZ-fluorescein and CoilY-rhodamine before imaging. GFP and mCherry fluorescence was not preserved due to SDS-PAGE protein denaturation.
# as §5
# T1 sequence (P02786 whole entry): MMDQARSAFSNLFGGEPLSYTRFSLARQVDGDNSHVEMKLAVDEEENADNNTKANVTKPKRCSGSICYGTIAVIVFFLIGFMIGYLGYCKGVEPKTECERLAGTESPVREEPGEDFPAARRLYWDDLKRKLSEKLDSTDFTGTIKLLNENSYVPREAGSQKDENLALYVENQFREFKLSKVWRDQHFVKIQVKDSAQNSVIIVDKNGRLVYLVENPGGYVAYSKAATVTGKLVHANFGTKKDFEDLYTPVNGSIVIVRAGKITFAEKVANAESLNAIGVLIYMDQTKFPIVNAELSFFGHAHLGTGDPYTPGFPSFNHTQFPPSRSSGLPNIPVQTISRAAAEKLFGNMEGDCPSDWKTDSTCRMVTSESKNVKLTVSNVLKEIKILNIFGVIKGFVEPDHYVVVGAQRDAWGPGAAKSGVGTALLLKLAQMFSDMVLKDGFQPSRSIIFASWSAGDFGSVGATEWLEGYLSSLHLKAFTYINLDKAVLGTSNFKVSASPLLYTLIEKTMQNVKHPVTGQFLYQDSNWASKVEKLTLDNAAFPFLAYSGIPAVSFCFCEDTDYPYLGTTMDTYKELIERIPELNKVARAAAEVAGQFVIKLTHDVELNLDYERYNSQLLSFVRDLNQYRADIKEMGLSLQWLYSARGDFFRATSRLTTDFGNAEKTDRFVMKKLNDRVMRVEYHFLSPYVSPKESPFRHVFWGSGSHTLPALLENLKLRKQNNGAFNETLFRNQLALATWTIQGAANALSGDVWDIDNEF
molecule,measurement,setting,value
"CoilY probe peptide: CoilY with linker, reactive cysteine and His6 tag, SEQ ID NO: 13 (peptide) MGSSNTVKELKNYIQELEERNAELKNLKEHLKFAKAELEFELAAHKFEGGGAAACLGKLAAALEHHHHHH",non-specific labeling of untagged fluorescent proteins,[1],not labeled
CoilZ-AF647: CoilZ probe peptide conjugated to AF647 (conjugate) peptide: MGSSQKVAQLKNRVAYKLKENAKLENIVARLENDNANLEKDIANLEKDIANLERDVARGGGAAACLGKLAAALEHHHHHH,labeling time (rapid),[2]; CoilY-EGFP on surface of U2OS cells,< 30 min
same,labeling of CoilY-GFP/EGFP (specificity),[2]; fluorescence microscopy,specific
same,non-specific labeling of untagged fluorescent proteins,[1],not observed
same,homodimerization / cross-reactivity of CoilZ probe with CoilZ-GFP/EGFP,[3],not observed
same,non-specific labeling of untagged EGFP-TM,[4],slightly higher
"CoilZ probe peptide: CoilZ with linker, reactive cysteine and His6 tag, SEQ ID NO: 14 (peptide) MGSSQKVAQLKNRVAYKLKENAKLENIVARLENDNANLEKDIANLEKDIANLERDVARGGGAAACLGKLAAALEHHHHHH",homodimerization / cross-reactivity of CoilZ probe with CoilZ-GFP/EGFP,[3],not observed
VIP 1/2: heterodimeric tag pair of Coil1 and Coil2 (peptide) chain 1: NLVAQLENEVASLENENETLKKKNLHKKDLIAYLEKEIANLRKKIEE chain 2: ARNAYLRKKIARLKKDNLQLERDEQNLEKIIANLRDEIARLENEVASHEQ,Kd,[5],< 10 nM
"CoilR-rhodamine: CoilR probe peptide conjugated to rhodamine (conjugate, reading uncertain) peptide: MGGSLEIRAAFLRQRNTALRTEVAELEQEVQRLENEVSQYETRYGPLGGGAAALGC(rhodamine)LAAALEHHHHHH",labeling of untagged proteins on membrane,[6],not labeled
VIP 3/4: heterodimeric tag pair of Coil3 and Coil4 (peptide) chain 1: NEVTTLENDAAFIENENAYLEKEIARLRKEKAALRNRLAHKK chain 2: QKVAELKNRVAVKLNRNEQLKNKVEELKNRNAYLKNELATLENEVARLENDVAE,Kd,[5],< 30 nM
"miniVIPER: shorter, better charge balanced VIP E/R pair of MiniE and MiniR (peptide) chain 1: LEIRVAFLRQRNTALRTEVAELEQEVQRLENRYGPL chain 2: LEIEAAFLERENTALETRVAELRQRVQRLRNEYGPL",Tf-AF488 signal compared to VIPER,[7],brighter Tf-A488 signal
same,colocalization between Tf-AF488 and CoilR-Cy5 compared to VIPER,[7],improved colocalization
"CoilR-BODIPY: CoilR probe peptide conjugated to BODIPY (conjugate, reading uncertain) peptide: MGGSLEIRAAFLRQRNTALRTEVAELEQEVQRLENEVSQYETRYGPLGGGAAALGC(BODIPY)LAAALEHHHHHH",labeling of cells expressing untagged TfR1,[8],showed now labeling
"CoilY-rhodamine: red fluorescent CoilY probe peptide, maleimide conjugate (conjugate, reading uncertain, red fluorescent CoilY probe peptide, maleimide conjugate) peptide: MGSSNTVKELKNYIQELEERNAELKNLKEHLKFAKAELEFELAAHKFEGGGAAAC(rhodamine)LGKLAAALEHHHHHH",probe peptide binding to CoilZ-EGFP on membrane,[9],specific coiled-coil heterodimer formation could be detected; also recorded: Probe peptide binding was detected

# Reference: patent publication US11360100B2, “Methods and compositions useful in detecting proteins” (OREGON HEALTH & SCIENCE UNIVERSITY, priority 2016, dated 2022)
